Measured values reported in paper doi:10.1101/2023.08.28.555081 (bioRxiv, 2023).

Target: the molecule itself
Test: negative-stain electron microscopy

B1: Light-Dependent Protochlorophyllide Oxidoreductase, PORB isoform of A. thaliana, wild type (enzyme)
chain: QTAATSSPTVTKSVDGKKTLRKGNVVVTGASSGLGLATAKALAETGKWNVIMACRDFLKAERAAKSVGMPKDSYTVMHLDLASLDSVRQFVDNFRRTETPLDVLVCNAAVYFPTAKEPTYSAEGFELSVATNHLGHFLLARLLLDDLKKSDYPSKRLIIVGSITGNTNTLAGNVPPKANLGDLRGLAGGLNGLNSSAMIDGGDFDGAKAYKDSKVCNMLTMQEFHRRFHEETGVTFASLYPGCIASTGLFREHIPLFRALFPPFQKYITKGYVSETESGKRLAQVVSDPSLTKSGVYWSWNNASASFENQLSEEASDVEKARKVWEISEKLVGLA
binding result: binds

B2: Light-Dependent Protochlorophyllide Oxidoreductase (AtPORB) Y177F_H319A double mutant (enzyme, A. thaliana)
chain: QTAATSSPTVTKSVDGKKTLRKGNVVVTGASSGLGLATAKALAETGKWNVIMACRDFLKAERAAKSVGMPKDSYTVMHLDLASLDSVRQFVDNFRRTETPLDVLVCNAAVFFPTAKEPTYSAEGFELSVATNHLGHFLLARLLLDDLKKSDYPSKRLIIVGSITGNTNTLAGNVPPKANLGDLRGLAGGLNGLNSSAMIDGGDFDGAKAYKDSKVCNMLTMQEFHRRFHEETGVTFASLYPGCIASTGLFREAIPLFRALFPPFQKYITKGYVSETESGKRLAQVVSDPSLTKSGVYWSWNNASASFENQLSEEASDVEKARKVWEISEKLVGLA
binding result: binds
